{"source": "patent US8697366", "about": "(SEOUL NATIONAL UNIVERSITY INDUSTRY FOUNDATION, dated 2014)", "binders": {"B1": {"name": "Flag-tagged RORα (receptor, UniProt P35398 1-523, looked up)", "chain": "MESAPAAPDPAASEPGSSGADAAAGSRETPLNQESARKSEPPAPVRRQSYSSTSRGISVTKKTHTSQIEIIPCKICGDKSSGIHYGVITCEGCKGFFRRSQQSNATYSCPRQKNCLIDRTSRNRCQHCRLQKCLAVGMSRDAVKFGRMSKKQRDSLYAEVQKHRMQQQQRDHQQQPGEAEPLTPTYNISANGLTELHDDLSNYIDGHTPEGSKADSAVSSFYLDIQPSPDQSGLDINGIKPEPICDYTPASGFFPYCSFTNGETSPTVSMAELEHLAQNISKSHLETCQYLREELQQITWQTFLQEEIENYQNKQREVMWQLCAIKITEAIQYVVEFAKRIDGFMELCQNDQIVLLKAGSLEVVFIRMCRAFDSQNNTVYFDGKYASPDVFKSLGCEDFISFVFEFGKSLCSMHLTEDEIALFSAFVLMSADRSWLQEKVKIEKLQQKIQLALQHVLQKNHREDGILTKLICKVSTLRALCGRHTEKLMAFKAIYPDIVRLHFPPLYKELFTSEFEPAMQIDG", "notes": "also called Flag-RORα; Flag-RORα WT; not shown: Flag tag"}, "B2": {"name": "RORα (receptor, UniProt P35398 1-523, looked up)", "chain": "B1 chain", "notes": "also called retinoic acid-related orphan nuclear receptor (ROR)α; endogenous RORα"}, "B3": {"name": "Flag-RORα DBD mutant (C90A) (receptor, UniProt P35398 1-523, looked up)", "chain": "B1 chain with C90A", "notes": "also called RORαC90A; not shown: Flag tag"}, "B4": {"name": "Flag-RORα S35D (receptor, UniProt P35398 1-523, looked up)", "chain": "B1 chain with S35D", "notes": "not shown: Flag tag"}}, "key": {"β-catenin [1]": {"target": "T1, β-catenin (UniProt P35222 1-781)", "T1 sequence (looked up)": "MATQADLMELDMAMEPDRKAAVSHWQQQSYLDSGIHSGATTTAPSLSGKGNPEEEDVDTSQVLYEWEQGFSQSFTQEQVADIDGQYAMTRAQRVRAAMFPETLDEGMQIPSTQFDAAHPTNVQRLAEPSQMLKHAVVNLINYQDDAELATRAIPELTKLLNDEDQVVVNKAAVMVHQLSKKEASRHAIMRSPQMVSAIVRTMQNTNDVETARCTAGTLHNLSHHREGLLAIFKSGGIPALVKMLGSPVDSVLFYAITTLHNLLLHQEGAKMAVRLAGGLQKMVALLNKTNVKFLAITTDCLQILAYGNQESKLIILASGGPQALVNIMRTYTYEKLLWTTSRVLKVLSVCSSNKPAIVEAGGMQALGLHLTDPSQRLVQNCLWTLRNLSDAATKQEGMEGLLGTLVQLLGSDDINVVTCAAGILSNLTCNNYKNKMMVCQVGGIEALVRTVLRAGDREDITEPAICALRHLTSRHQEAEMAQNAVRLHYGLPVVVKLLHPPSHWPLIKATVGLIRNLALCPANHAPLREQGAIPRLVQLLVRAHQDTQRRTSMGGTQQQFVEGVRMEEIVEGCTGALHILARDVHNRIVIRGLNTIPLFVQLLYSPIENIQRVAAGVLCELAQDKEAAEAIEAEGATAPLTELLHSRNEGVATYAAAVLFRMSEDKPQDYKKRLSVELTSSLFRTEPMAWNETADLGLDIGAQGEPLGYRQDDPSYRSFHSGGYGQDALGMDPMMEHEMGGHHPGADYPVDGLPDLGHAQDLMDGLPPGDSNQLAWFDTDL", "assay": "anti-Flag M2 affinity purification from HEK293 extracts, LC-MS/MS and immunoblot of eluates", "protocol": "FIG. 1. Purification of RORα-containing complex and identification of β-catenin as a binding partner (A) RORα-containing complex was purified from extracts obtained from HEK293 cells stably expressing Flag-tagged RORα. As a negative control, a mock purification from HEK293 cells stably expressing an empty vector was performed. The bound proteins were resolved by SDS-PAGE and prepared for LC-MS/MS analysis. […] (C) β-catenin and GRIP1 were detected from the elutes by immunoblot analysis. (D) Coimmunoprecipitation of endogenous RORα with β-catenin in HEK293 cells. (E) Ni+-NTA-agarose pulldown assay was performed with plasmids expressing each GFP-tagged β-catenin deletion construct and HisMax-RORα. (F) Illustration of the structure of various β-catenin deletion constructs and binding to RORα.\nPurification of RORα-Containing Complex and Identification of β-Catenin as a Binding Partner To investigate the as-yet-unidentified functional modules of RORα, we used a Flag epitope-tag strategy to purify RORα-containing complexes. We generated cell lines that stably express Flag-tagged RORα, and incubated the extracts in anti-Flag M2 affinity gel. After washing with buffer containing increasing salt concentrations of up to 500 mM, the proteins retained on the affinity chromatography column were eluted with buffer containing Flag peptide. […]"}, "PKCδ": {"target": "PKCδ (UniProt Q05655 1-676)", "sequence (Q05655 whole entry, stated change not applied)": "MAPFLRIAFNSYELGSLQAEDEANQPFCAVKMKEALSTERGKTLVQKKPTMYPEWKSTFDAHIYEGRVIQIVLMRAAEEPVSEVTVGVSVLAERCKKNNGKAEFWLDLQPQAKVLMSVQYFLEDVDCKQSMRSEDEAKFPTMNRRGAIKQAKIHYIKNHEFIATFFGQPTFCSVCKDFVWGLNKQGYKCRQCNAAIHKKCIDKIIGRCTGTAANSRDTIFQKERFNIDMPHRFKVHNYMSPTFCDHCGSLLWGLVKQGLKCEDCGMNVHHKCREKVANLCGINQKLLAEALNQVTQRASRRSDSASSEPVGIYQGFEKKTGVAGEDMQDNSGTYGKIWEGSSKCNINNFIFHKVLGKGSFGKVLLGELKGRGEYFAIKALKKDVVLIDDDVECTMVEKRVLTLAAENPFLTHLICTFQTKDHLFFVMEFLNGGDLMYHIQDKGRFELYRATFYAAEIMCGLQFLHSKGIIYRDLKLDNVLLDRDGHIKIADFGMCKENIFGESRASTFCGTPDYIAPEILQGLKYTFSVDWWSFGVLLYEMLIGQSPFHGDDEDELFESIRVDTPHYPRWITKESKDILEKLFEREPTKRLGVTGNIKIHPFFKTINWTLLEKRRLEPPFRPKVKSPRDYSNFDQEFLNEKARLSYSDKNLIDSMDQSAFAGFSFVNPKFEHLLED", "assay": "in vivo coimmunoprecipitation"}, "PKCε": {"target": "T2, PKCε (UniProt Q02156 1-737)", "T2 sequence (looked up)": "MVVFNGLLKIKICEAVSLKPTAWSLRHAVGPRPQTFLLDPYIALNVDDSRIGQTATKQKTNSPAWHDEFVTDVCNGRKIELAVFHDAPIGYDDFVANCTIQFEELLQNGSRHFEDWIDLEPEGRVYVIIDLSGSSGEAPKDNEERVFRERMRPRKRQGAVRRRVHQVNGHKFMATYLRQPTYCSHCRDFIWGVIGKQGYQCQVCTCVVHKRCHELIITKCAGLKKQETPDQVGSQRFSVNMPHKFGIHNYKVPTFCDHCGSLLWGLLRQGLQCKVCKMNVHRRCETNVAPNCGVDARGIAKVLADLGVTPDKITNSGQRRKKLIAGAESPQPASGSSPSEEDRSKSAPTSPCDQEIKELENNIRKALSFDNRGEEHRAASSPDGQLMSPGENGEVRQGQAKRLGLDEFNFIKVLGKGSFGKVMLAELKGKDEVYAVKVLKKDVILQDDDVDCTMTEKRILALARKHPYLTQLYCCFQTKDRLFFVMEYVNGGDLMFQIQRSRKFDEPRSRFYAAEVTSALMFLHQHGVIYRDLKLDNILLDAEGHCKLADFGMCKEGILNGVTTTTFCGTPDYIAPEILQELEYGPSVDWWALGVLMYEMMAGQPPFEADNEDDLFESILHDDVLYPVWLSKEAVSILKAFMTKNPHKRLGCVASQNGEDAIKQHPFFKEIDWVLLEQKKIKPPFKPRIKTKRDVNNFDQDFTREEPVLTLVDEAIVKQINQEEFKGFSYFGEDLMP", "assay": "in vivo coimmunoprecipitation"}, "PKCη": {"target": "PKCη (UniProt P24723 1-683)", "sequence (P24723 whole entry)": "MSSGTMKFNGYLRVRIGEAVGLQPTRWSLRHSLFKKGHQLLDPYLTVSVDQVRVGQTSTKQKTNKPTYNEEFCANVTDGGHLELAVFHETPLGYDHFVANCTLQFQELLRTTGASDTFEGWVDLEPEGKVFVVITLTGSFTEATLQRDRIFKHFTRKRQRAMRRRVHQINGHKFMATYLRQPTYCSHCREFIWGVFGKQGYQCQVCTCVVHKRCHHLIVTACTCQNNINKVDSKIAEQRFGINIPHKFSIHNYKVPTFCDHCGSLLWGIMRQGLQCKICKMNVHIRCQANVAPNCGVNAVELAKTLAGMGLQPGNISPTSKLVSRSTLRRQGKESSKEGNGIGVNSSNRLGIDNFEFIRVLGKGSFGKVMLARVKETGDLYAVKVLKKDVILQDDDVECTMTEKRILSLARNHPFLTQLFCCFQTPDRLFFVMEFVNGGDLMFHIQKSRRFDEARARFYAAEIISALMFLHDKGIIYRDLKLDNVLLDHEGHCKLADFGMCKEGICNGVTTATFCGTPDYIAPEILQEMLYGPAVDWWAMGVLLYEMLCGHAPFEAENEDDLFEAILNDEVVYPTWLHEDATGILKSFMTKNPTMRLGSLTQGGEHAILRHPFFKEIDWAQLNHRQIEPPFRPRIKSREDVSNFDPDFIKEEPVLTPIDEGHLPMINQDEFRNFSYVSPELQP", "assay": "in vivo coimmunoprecipitation"}, "PKCβ2": {"target": "PKCβ2 (UniProt P05771-2 1-673)", "sequence (P05771 other isoform, or with tags, fused parts or gaps)": "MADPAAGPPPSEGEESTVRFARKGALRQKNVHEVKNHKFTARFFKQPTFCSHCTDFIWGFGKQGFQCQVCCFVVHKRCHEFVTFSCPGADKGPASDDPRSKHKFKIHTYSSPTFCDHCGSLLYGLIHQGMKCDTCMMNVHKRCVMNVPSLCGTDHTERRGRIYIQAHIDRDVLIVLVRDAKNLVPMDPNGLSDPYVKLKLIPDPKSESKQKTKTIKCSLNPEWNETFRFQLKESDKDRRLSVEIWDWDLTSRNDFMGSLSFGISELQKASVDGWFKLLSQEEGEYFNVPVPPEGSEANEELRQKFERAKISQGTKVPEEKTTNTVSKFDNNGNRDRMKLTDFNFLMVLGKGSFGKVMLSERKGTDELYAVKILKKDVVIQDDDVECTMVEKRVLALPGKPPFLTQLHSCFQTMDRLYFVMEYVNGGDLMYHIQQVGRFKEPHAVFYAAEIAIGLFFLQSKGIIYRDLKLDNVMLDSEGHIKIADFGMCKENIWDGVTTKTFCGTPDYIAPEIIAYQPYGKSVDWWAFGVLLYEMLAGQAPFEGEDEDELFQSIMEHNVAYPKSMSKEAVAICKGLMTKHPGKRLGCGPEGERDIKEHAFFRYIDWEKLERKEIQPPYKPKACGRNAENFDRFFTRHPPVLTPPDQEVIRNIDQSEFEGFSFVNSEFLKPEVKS", "assay": "in vivo coimmunoprecipitation"}, "β-catenin [2]": {"target": "T1, β-catenin", "assay": "co-IP with anti-Flag antibody from HCT116 cells, immunoblot for β-catenin", "protocol": "FIG. 4. PKCα-dependent phosphorylation of RORα is crucial for downregulation of Wnt/β-catenin target genes (A) The specificity of the antibody raised against phosphorylated RORαS35 peptide (SEQ ID NO:18) was assessed by dot blot analysis. (B) Treatment of TPA increased phophorylated RORα on S35 site as assessed by immunoprecipitation with anti-phospho-RORαS35 antibody. […] (D) Treatment of Go6976, a PKCα inhibitor, abolished TPA-dependent phosphorylation of RORα as assessed by immonoblotting with anti-phospho-RORαS35 antibody. (E) HCT116 cells were transfected with Flag-RORα WT, S35D, or S35A, and the cell extracts were immunoprecipitated with anti-Flag antibody followed by immunoblotting against anti-β-catenin antibody. (F) Coimmunoprecipitation assay of β-catenin with either RORαWT or S35A in HCT116 cells after treatment with TPA in the absence or presence of Go6976. (G) ChIP analysis on the cyclin D1 promoter after transfection with Flag-RORαWT, S35A, or S35D in HCT116 cells. (H) ChIP analysis on the cyclin D1 promoter in HCT116 cells after TPA treatment for indicated time. […] (J) Real-time quantitative RT-PCR analysis of the cyclin D1 transcript in HCT116 cells in the presence of TPA for indicated time. (K) Knockdown effect of siRNA against RORα or PKCα was assessed in the expression of the cyclin D1 transcript in HCT116 cells. […]"}}, "note": "Changes are numbered by the printed parent chain. Names and notes keep the numbering of the source.", "data": [{"binder": "B1", "values": [{"measurement": "binding result", "setting": "β-catenin [1]", "value": "binds"}]}, {"binder": "B2", "values": [{"measurement": "binding result", "setting": "PKCδ", "value": "no binding"}, {"measurement": "binding result", "setting": "PKCε", "value": "no binding"}, {"measurement": "binding result", "setting": "PKCη", "value": "no binding"}, {"measurement": "binding result", "setting": "PKCβ2", "value": "no binding"}]}, {"binder": "B3", "values": [{"measurement": "binding result", "setting": "β-catenin [2]", "value": "binds"}]}, {"binder": "B4", "values": [{"measurement": "binding result", "setting": "β-catenin [2]", "value": "binds"}]}]}
